# Patent publication US20220177587A1, “METHODS AND USES OF VARIANT CD80 FUSION PROTEINS AND RELATED CONSTRUCTS” (Alpine Immune Sciences, Inc., priority 2018, published 2022)
# Where two headings read alike, the source gives them in different places.
# Key:
# CD28 (human) [1] = biological target: CD28 (human) (UniProt P10747); experiment: flow cytometry, Jurkat cells (CD28)
# human PD-L1 (human) [2] = biological target: human PD-L1 (human) (UniProt Q9NZQ7); experiment: flow cytometry, CHO cells stably expressing PD-L1
# Target sequence in this assay (Q9NZQ7 19-290): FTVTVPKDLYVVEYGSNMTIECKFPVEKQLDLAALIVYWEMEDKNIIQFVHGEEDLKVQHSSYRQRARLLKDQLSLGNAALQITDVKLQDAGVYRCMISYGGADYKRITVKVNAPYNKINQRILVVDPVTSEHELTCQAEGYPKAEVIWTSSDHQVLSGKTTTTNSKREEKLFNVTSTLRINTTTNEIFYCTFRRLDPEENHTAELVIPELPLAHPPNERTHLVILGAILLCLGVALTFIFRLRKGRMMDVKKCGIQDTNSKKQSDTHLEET
# human PD-L1 (human) [3] = biological target: human PD-L1 (human) (UniProt Q9NZQ7); experiment: flow cytometry, MFI on CHO/PD-L1 over MFI on Jurkat (CD28)
# Target sequence in this assay (Q9NZQ7 19-290): as above
# human CTLA-4 (human) [4] = biological target: human CTLA-4 (human) (UniProt P16410); experiment: flow cytometry, CHO cells stably expressing CTLA4
# human PD-L1 (human) [5] = biological target: human PD-L1 (human) (UniProt Q9NZQ7)
# Target sequence in this assay (Q9NZQ7 19-290 limits assumed): as the sequence (Q9NZQ7 19-290) above
# CD28 (human) [6] = biological target: CD28 (human) (UniProt P10747)
# human PD-L1 (human) [7] = biological target: human PD-L1 (human) (UniProt Q9NZQ7); experiment: flow cytometry, MFI on PD-L1 cells over MFI on CD28 cells
# Target sequence in this assay (Q9NZQ7 19-290): as above
# human PD-L1 (human) [8] = biological target: human PD-L1 (human) (UniProt Q9NZQ7); remark: listed apart in the source
# Target sequence in this assay (Q9NZQ7 19-290): as above
# CD28 (human) [9] = biological target: CD28 (human) (UniProt P10747); remark: listed apart in the source
# human CTLA-4 (human) [10] = biological target: human CTLA-4 (human) (UniProt P16410); experiment: flow cytometry, CHO/CTLA4 cells; MFI over CD80 WT IgV-Fc
# human PD-L1 (human) [11] = biological target: human PD-L1 (human) (UniProt Q9NZQ7); experiment: flow cytometry, CHO/PD-L1 cells; MFI over CD80 WT IgV-Fc
# Target sequence in this assay (Q9NZQ7 19-290): as above
# CD28 (human) [12] = biological target: CD28 (human) (UniProt P10747); experiment: flow cytometry, Jurkat cells (CD28); MFI over CD80 WT IgV-Fc
# human PD-L1 (human) [13] = biological target: human PD-L1 (human) (UniProt Q9NZQ7); remark: listed apart in the source
# Target sequence in this assay (Q9NZQ7 19-290): as above
# CD28 (human) [14] = biological target: CD28 (human) (UniProt P10747); remark: listed apart in the source
# Chain of human CTLA-4 (human) (P16410 36-223): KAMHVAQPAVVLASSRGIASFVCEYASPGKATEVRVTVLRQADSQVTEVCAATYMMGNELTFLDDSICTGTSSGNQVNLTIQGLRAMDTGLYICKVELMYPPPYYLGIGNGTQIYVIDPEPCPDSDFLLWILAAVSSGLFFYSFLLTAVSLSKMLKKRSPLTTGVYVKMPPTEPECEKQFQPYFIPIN
Binder,Fold change to WT (CD28 (human) [1]) [fold],MFI at 33.3 nM (CD28 (human) [1]) [MFI],Fold change to WT (human PD-L1 (human) [2]) [fold],MFI at 33.3 nM (human PD-L1 (human) [2]) [MFI],Ratio of PDL1:CD28 (human PD-L1 (human) [3]),Fold change to WT CD80 (human CTLA-4 (human) [4]) [fold],MFI at 33.3 nM (human CTLA-4 (human) [4]) [MFI],Fold change to WT CD80 (CD28 (human) [1]) [fold],"IL-2 luciferase reporter, fold increase over WT CD80-IgV-Fc at 5.0 nM (human PD-L1 (human) [5]) [fold]","IL-2 luciferase reporter, fold increase over WT CD80-IgV-Fc at 5.0 nM (CD28 (human) [6]) [fold]",Fold change to WT CD80 (human PD-L1 (human) [2]) [fold],Ratio of PDL1:CD28 (human PD-L1 (human) [7]),"IL2-luciferase reporter, fold increase in RLU over WT CD80-IgV-Fc at 5.0 nM (human PD-L1 (human) [8]) [fold]","IL2-luciferase reporter, fold increase in RLU over WT CD80-IgV-Fc at 5.0 nM (CD28 (human) [9]) [fold]",Fold change to WT CD80 (human CTLA-4 (human) [10]) [fold],Fold change to WT CD80 (human PD-L1 (human) [11]) [fold],Fold change to WT CD80 (CD28 (human) [12]) [fold],"IL2-luciferase reporter, fold increase in RLU over WT CD80-IgV-Fc at 5.0 nM (human PD-L1 (human) [13]) [fold]","IL2-luciferase reporter, fold increase in RLU over WT CD80-IgV-Fc at 5.0 nM (CD28 (human) [14]) [fold]"
CD80 IgV-Fc H18Y/V22A/E35D/T41S/M47V/T62N/A71G/A91G (Fc fusion) VIHVTKEVKEVATLSCGYNVSAEELAQTRIYWQKDKKMVLSMMSGDVNIWPEYKNRTIFDINNNLSIVILGLRPSDEGTYECVVLKYEKDGFKREHLAEVTLSVKAD,38.5,1590,101,8460,5,10,10300,–,–,–,–,–,–,–,–,–,–,–,–
variant CD80 IgV-Fc H18Y/A26E/E35D/M47L (Fc fusion) VIHVTKEVKEVATLSCGYNVSVEELEQTRIYWQKDKKMVLTMMSGDLNIWPEYKNRTIFDITNNLSIVILALRPSDEGTYECVVLKYEKDAFKREHLAEVTLSVKAD,–,324,–,9950,–,17.7,24000,7.4,3.1,3.1,228,30.7,–,–,–,–,–,–,–
variant CD80 IgV-Fc E35D/M47L/V68M/D90G (Fc fusion) VIHVTKEVKEVATLSCGHNVSVEELAQTRIYWQKDKKMVLTMMSGDLNIWPEYKNRTIFDITNNLSIMILALRPSDEGTYECVVLKYEKGAFKREHLAEVTLSVKAD,–,3410,–,23500,–,20.3,27600,77.8,1.82,1.82,539,6.9,–,–,–,–,–,–,–
variant CD80 IgV-Fc H18Y/E35D/A71G/D90G (Fc fusion) VIHVTKEVKEVATLSCGYNVSVEELAQTRIYWQKDKKMVLTMMSGDMNIWPEYKNRTIFDITNNLSIVILGLRPSDEGTYECVVLKYEKGAFKREHLAEVTLSVKAD,–,1310,–,8520,–,19,25900,29.8,3.81,3.81,196,6.5,–,–,–,–,–,–,–
variant CD80 IgV-Fc (inert) H18L/A26N/D46E/V68M/A71G/D90G (Fc fusion) VIHVTKEVKEVATLSCGLNVSVEELNQTRIYWQKEKKMVLTMMSGEMNIWPEYKNRTIFDITNNLSIMILGLRPSDEGTYECVVLKYEKGAFKREHLAEVTLSVKAD,–,7250,–,68000,–,–,17000,–,–,–,–,–,4.8,4.8,12.3,412,71.1,–,–
"CD80 E35D/M47V/N48K/V68M/K89N IgV-Fc, EAAAK linker (Fc fusion) VIHVTKEVKEVATLSCGHNVSVEELAQTRIYWQKDKKMVLTMMSGDVKIWPEYKNRTIFDITNNLSIMILALRPSDEGTYECVVLKYENDAFKREHLAEVTLSVKADEAAAK",–,2630,–,22900,–,–,27500,–,–,–,–,–,–,–,23,491,47.1,4.38,4.38
"CD80 E35D/M47V/N48K/V68M/K89N IgV-Fc, (EAAAK)3 linker (Fc fusion) VIHVTKEVKEVATLSCGHNVSVEELAQTRIYWQKDKKMVLTMMSGDVKIWPEYKNRTIFDITNNLSIMILALRPSDEGTYECVVLKYENDAFKREHLAEVTLSVKADEAAAKEAAAKEAAAK",–,1280,–,24500,–,–,27100,–,–,–,–,–,–,–,22.6,525,23,4.52,4.52
"CD80 E35D/D46V/M47L/V68M/L85Q/E88D IgV-Fc, EAAAK linker (Fc fusion) VIHVTKEVKEVATLSCGHNVSVEELAQTRIYWQKDKKMVLTMMSGVLNIWPEYKNRTIFDITNNLSIMILALRPSDEGTYECVVQKYDKDAFKREHLAEVTLSVKADEAAAK",–,563,–,24800,–,–,29000,–,–,–,–,–,–,–,24.2,533,10.1,3.75,3.75
"CD80 E35D/D46V/M47L/V68M/L85Q/E88D IgV-Fc, (EAAAK)3 linker (Fc fusion) VIHVTKEVKEVATLSCGHNVSVEELAQTRIYWQKDKKMVLTMMSGVLNIWPEYKNRTIFDITNNLSIMILALRPSDEGTYECVVQKYDKDAFKREHLAEVTLSVKADEAAAKEAAAKEAAAK",–,197,–,25500,–,–,32000,–,–,–,–,–,–,–,26.8,546,3.5,5.25,5.25
